Measurements published in publication doi:10.1101/2023.12.08.570755.

Molecular target: activation domain of SRC-3 (ACTR), labelled with AlexaFluor 647, with a ssDNA handle
Experiment: FRET or BRET

- most likely lifetime of the intermediate state (transient encounter complex), τi: 96 μs
Substance: nuclear-coactivator binding domain of the CBP/p300 transcription factor (NCBD), labelled with LD750 (domain or fragment)
